Source: the supplement of paper PMC9170038

What follows are sequences tested on MS2 coat protein (assay: apparent KD of MS2 coat protein; higher = weaker reporter binding). Conditions: Eterna round: R107; input ligand: theophylline 20 uM.
Summary of the method: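 Illumina sequencing clusters served as templates for on-chip transcription of the designed RNA switches. SNAP-549-labelled MS2 coat protein was then titrated in twofold steps from 0.7 or 1.5 nM to 3 µM, allowing 0.8–1.5 h per step at first and 10–20 min per step later. The buffer held 100 mM Tris-HCl pH 7.5, 80 mM KCl and 4 mM MgCl2, without or with constant ligand. Apparent KD is the median per design of normalised cluster binding-curve fits.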

Sequence | apparent KD of MS2 coat protein
AGACAUGAGGAUCACCCAUGUAGUAUGGAUACCAGAUCCAGAUUUAUCCCUUGGCAGCUGUGGUACAGCGAUGGAUUGCUCCUAG [Exclusion - Theophylline A (Freestyle 10)] | 0.0485 µM
UUUGAUAGGACAGAUACCAGCGUGUUGUAGAACAUGAGGAUCACCCAUGUAGUGAUCAAGCGCCCUUGGCAGCUGGUUUGUUAGG [7.L] | 0.35 µM
GGUAGACGGACGGCCGCCACUCACAUGAGGAUCACCCAUGUAUAGUUGGUAAUCUGGGUUCAGGAGAGGACCGGGUCCUUGUCAG [theeternabot_exclusion_MS2_Trp_B_43] | 0.0232 µM
UUACCGUAAGGUAUACCGGUCCACAAUAAUCGAGGACCGGUACGGCCGCCACUCGAUGUGUGAUCACAUGAGGAUCACCCAUGUA [Tryptophan A 20] | 0.46 µM
AUUCAGAGAUCACAUGAGGAUCACCCAUGUCGAGGACCGGUACGGCCGCCACUCGCGGCGGUGAAAAUAGAUACAAAGUAUCUAU [Ex_TrypA - Vienna approves #2] | 0.0618 µM
ACAUGAGGAUCACCCAUGUACAUGAGGGAAGGAGCGGUACAUGAGCCAGGUAGGUCGCCCAACAGCAAAUGGCAUGUACAACGGA [hhnmullin] | 0.0743 µM
GAGCGCGUGGACUGGCGUGCUCCGCUCCGUCGAGGACCGGUACGGCCGCCACUCGACAUGAGGAUCACCCAUGUGCGCGCUCGCU [#1 Exclusion - Tryptophan A Attempt #23 (HarryS)] | 0.177 µM
GCCGCGGCCGCGAUACACAUGGGUGUGUAACGAGGACCGGUACGGCCGCCACUCGAGAUGGCACAUGAGGAUCACCCAUGUGUGC [Exclusion Tryp A GF16] | 0.0602 µM
CUCUUGGCCGCAGUACGUUUAUAGACCUAUCGAGGACCGGUACGGCCGCCACUCGGUUAGUCACAUGAGGAUCACCCAUGUGUCC [theeternabot_exclusion_MS2_Trp_A_38] | 0.023 µM
GGCACGUACGGAAGGAGCGACUGUUCAACGUGGGUACAUGAGGAUCACCCAUGUCUCCGCAGUCAGGUAGGUCGCCGUACGUGCC [EAB NP+V+V2 #20] | 0.0198 µM
GUUAUAUCAAAAGAUGUAACAGUGGGUGAACGAGGACCGGUACGGCCGCCACUCGGACAUGAGGAUCACCCAUGUCCAUGUGAAA [AstrosExyTryA#14] | 0.0175 µM
ACAUGAGGAUCACCCAUGUACAUCACCCGACGAGGACCGGUACGGCCGCCACUCGGGUAUAUAUUUACAUCGGGUGAUUUUACGU [#23 Tryptophan A Same State] | 0.0812 µM
ACAUGAGGAUCACCCAUGUGCCGUCUUGAUACCAGACCCGAAGUAGUCCCUUGGCAGCAACUACGUGAGGGUCGCCCAUGUGUAG [5kullin] | 0.0222 µM
AGCACUGUGACGGCCGCCACUAUAUUAGGGUGGUAAGGUUCAUAAAUACAUGAGGAUCACCCAUGUAGGACCGGGUCUCAGUGCA [Omei Trp Exc B A v2] | 0.011 µM
UUUGAUAGGACAGAUACCAGCGUGUUAUAAAACAUGAGGAUCACCCAUGUAGUGAUCAAGCGCCCUUGGCAGCUGGUUUGUUAGG [7.J] | 0.22 µM
ACUUGAUACUGAAGGAGCGUCGGAUAAACUCGCACAUGAGGAUCACCCAUGUAUAUGAAUCGGCAGGUAGGUCGCAGUAUCGAGU [#21 Same State - Arginine B] | 0.0204 µM
AAUAACAUGAGGAUCACCCAUGUAAAAGAUACCAGAUGCAUGAUGAUCCCUUGGCAGCUUAAAACGCGAUUGGAAACAAUCGCGA [Mat - Same State Theophlline A - Mod of Eli - D13] | 0.0934 µM
CCUUAAUAUAGAAGGAGCGCGCUAACAUGAGGAUCACCCAUGUAAAGGGUUUUGGGCUUAGCGCAGGUAGGUCGCUAUAAGAACC [Arg B Ex t2] | 0.095 µM
AACAUGAGGAUCACCCAUGUCCCAUGUGAACGAGGACCGGUACGGCCGCCACUCGACUGAGGCGGCACAUGAGGAUCACCCACAU [whbob_SS_trypto A_2s12] | 0.207 µM

Same assay, conditions: Eterna round: R107; input ligand: theophylline 2 mM

Sequence | apparent KD of MS2 coat protein
UCCUCCUCCGCAAGGAGGAGGAGUUGCGAUACCAGCCCGGAAACGGGCCCUUGGCAGCGCACAUGAGGAUCACCCAUGUCAUGUU [#1 Exclusion - Theophylline A Attempt #8 (HarryS)] | 0.0306 µM
AUGCGGUGCGGAAGGAGCGAGUUUGCCUAUUUACAUGAGGAUCACCCAUGUCCUAAUGGGACUCAGGUAGGUCGCCGUUGUCGCA [Same State Arginine B GF 29] | 0.0499 µM
UAUAUAUAGGCGGCCGCCACUGAUUUUCAUAUAUAUAUAACAUGAGGAUCACCCAUGUAGAUAUACAGGACCGGGCCUAUAUAUA [aaaA] | 0.0147 µM
UCGGGCCUUCUUUCUUGGCCCGUUACAGAAGGAGCGUCGGAAAUGACAGGUAGGUCGCUGAGAACAUGAGGAUCACCCAUGUAUU [SSAA #14] | 0.0251 µM
AAGGGACAUGAGGAUCACCCAUGUACCGAAGGAGCGGCAGAGAUGCCAGGUAGGUCGCGGUACUUGCCGGGUCAUUCAUGCAAAA [Teanbe] | 0.0219 µM
UUUAGUCAAUCGGCCGCCACUGACAUGAGGAUCACCCAUGUAGGUAAGGAUCAACCUCGAAAGUACAGGACCGGGAUUCGCCUCU [theeternabot_exclusion_MS2_Trp_B_45] | 0.065 µM
GGUUGGUGUAGAGAUAUAUUGAUUACUGAAGGAGCGGGACGAAACCCAGGUAGGUCGCAGAGAUCCACAUGAGGAUCACCCAUGU [!0.M] | 0.0614 µM
CUCUGAGUCCGUAAGGACUCAGAGGCGGAUACCAGCGAGGUCCAUCGCCCUUGGCAGCCGAACAUGAGGAUCACCCAUGUCGGUA [#1 Same State - Theophylline A Attempt #25 (HarryS)] | 0.0198 µM
ACAUGAGGAUCACCCAUGUUUGUUGUUCCUCGAGGACCGGUACGGCCGCCACUCGAACGAGUGGCGCGCGAGUGCGCACUCGCGC [aOa] | 0.0134 µM
ACACGAAGCUGAAGGAGCGUGGUAUAAUUUUUUACAUGAGGAUCACCCAUGUCUCAUUUUUCACAGGUAGGUCGCAGAUGCGUGA [JR_SSArginiB_Sub015] | 0.117 µM
GGUAGACGGACGGCCGCCACUCACAUGAGGAUCACCCAUGUAUAGUUGGUAAUCUGGGUUCAGGAGAGGACCGGGUCCUUGUCAG [theeternabot_exclusion_MS2_Trp_B_43] | 0.0243 µM
UUACCGUAAGGUAUACCGGUCCACAAUAAUCGAGGACCGGUACGGCCGCCACUCGAUGUGUGAUCACAUGAGGAUCACCCAUGUA [Tryptophan A 20] | 0.562 µM
AUUCAGAGAUCACAUGAGGAUCACCCAUGUCGAGGACCGGUACGGCCGCCACUCGCGGCGGUGAAAAUAGAUACAAAGUAUCUAU [Ex_TrypA - Vienna approves #2] | 0.0459 µM
ACAUGAGGAUCACCCAUGUACAUGAGGGAAGGAGCGGUACAUGAGCCAGGUAGGUCGCCCAACAGCAAAUGGCAUGUACAACGGA [hhnmullin] | 0.0605 µM
GAGCGCGUGGACUGGCGUGCUCCGCUCCGUCGAGGACCGGUACGGCCGCCACUCGACAUGAGGAUCACCCAUGUGCGCGCUCGCU [#1 Exclusion - Tryptophan A Attempt #23 (HarryS)] | 0.0278 µM
GCCGCGGCCGCGAUACACAUGGGUGUGUAACGAGGACCGGUACGGCCGCCACUCGAGAUGGCACAUGAGGAUCACCCAUGUGUGC [Exclusion Tryp A GF16] | 0.0445 µM
CUCUUGGCCGCAGUACGUUUAUAGACCUAUCGAGGACCGGUACGGCCGCCACUCGGUUAGUCACAUGAGGAUCACCCAUGUGUCC [theeternabot_exclusion_MS2_Trp_A_38] | 0.0197 µM
GGCACGUACGGAAGGAGCGACUGUUCAACGUGGGUACAUGAGGAUCACCCAUGUCUCCGCAGUCAGGUAGGUCGCCGUACGUGCC [EAB NP+V+V2 #20] | 0.0132 µM
